For the test, the target named is IL-2 receptor on the surface of human lymphocytes (T cells, NK cells, Treg cells from PBMC) (human). The experiment in a line: cell-based or functional assay.

In the case of “human wild-type IL-2 (rhIL-2, R&D systems, Catalog No. 202-IL) (from UniProt P60568 21-153) (ligand)”, the CD25-pSTAT5 EC50 (CD8+ CD25- T cells) was found to be 0.47 nM; the EC50 of pSTAT5, CD4+CD25- T cells was determined as 0.102 nM; the EC50 of pSTAT5, CD8+ T cells was 1.69 nM; the EC50 of pSTAT5, NK cells amounted to 0.0242 nM. The same substance yielded an EC50 of pSTAT5, Treg cells of 0.388 pM.

(Values after patent US20230145766A1.)
